{"source": "patent US20250011456A1", "about": "“ANTIBODIES AGAINST CD14 AND USES THEREOF” (Villanelle Life Science Inc, priority 2023, published 2025)", "molecules": {"B1": {"name": "D6DD3D001: mouse-derived anti-CD14 IgG1 antibody; VH SEQ ID NO: 1, VL SEQ ID NO: 3, heavy chain SEQ ID NO: 2, light chain SEQ ID NO: 4 (antibody)", "heavy": "DVQLQQSGPGLVKPSQSLSLTCTVTGYSITSDSAWNWIRQFPGNRLEWMGYISYSGSTSYNPSLKSRISITRDTSKNQFFLQLNSVTTEDTATYYCVRGLRFAYWGQGTLVTVSSPSVFLFPPKPKDTLMISRTPEVTCVVVDVSHEDPEVKFNWYVDGVEVHNAKTKPREEQYNSTYRVVSVLTVLHQDWLNGKEYKCKVSNKALPAPIEKTISKAKGQPREPQVYTLPPSREEMTKNQVSLTCLVKGFYPSDIAVEWESNGQPENNYKTTPPVLDSDGSFFLYSKLTVDKSRWQQGNVFSCSVMHEALHNHYTQKSLSLSPGK", "light": "DIVLTQSPASLAVSLGQRATISCRASESVDSYVNSFLHWYQQKPGQPPKLLIYRASNLQSGIPARFSGSGSRTDFTLTINPVEADDVATYYCQQSNEDPYTFGGGTKLEIKRTVAAPSVFIFPPSDEQLKSGTASVVCLLNNFYPREAKVQWKVDNALQSGNSQESVTEQDSKDSTYSLSSTLTLSKADYEKHKVYACEVTHQGLSSPVTKSFNRGEC"}}, "key": {"[1]": {"system": "CD14 positive recurrent bladder cancer patient-derived xenograft (PDX)", "assay": "Anti-CD14 IgG1/IgG4 with or without cisplatin, tumor treatment in PDX mice (tumor length, width, volume, tumor weight; Example 6)", "assay_type": "in vivo", "details": "for Tumor Length / Tumor Width: IgG1 5 mg/kg i.v. (Ex. 1), PDX mice 1-6", "excerpt": "After removing the primary tumor tissue from the patient, the tissue was temporarily placed in a complete culture medium containing RPMI1640 (Gibco Roswell Park Memorial Institute 1640 Media)+PS (penicillin and streptomycin)+10% FBS (Fetal bovine serum). The tissue was then transported to a sterile operating room within an SPF-grade (Specific Pathogen Free) animal facility. The tumor tissue was cut to an appropriate size (5 millimeters (mm) in diameter). Severely immunodeficient NSG (NOD scid gamma mouse) mice were anesthetized using an isoflurane respirator. The tumor was transplanted subcutaneously into the right rib area through surgery. When the tumor volume reached 1 cm^3, it was passaged following the same procedure, and after expanding for three generations, the tumor became stable for use in formal experiments. During the experiment, passaging and expansion were performed as needed. When the tumor volume reached 100 mm^3, the mice were divided into groups according to the experimental requirements and treated with drugs.\nThe IgG4 tested is the original version of Atibuclimab.\nDrug administration on the PDX mice was performed intravenously."}, "[2]": {"target": "T1, human CD14 antigen (B294801, histidine tagged) (Homo sapiens, UniProt P08571)", "T1 construct": "His; purchased Shanghai BaiYing Biotechnology Co., Ltd B294801 (Batch number 20200518A22)", "T1 sequence (P08571 20-345)": "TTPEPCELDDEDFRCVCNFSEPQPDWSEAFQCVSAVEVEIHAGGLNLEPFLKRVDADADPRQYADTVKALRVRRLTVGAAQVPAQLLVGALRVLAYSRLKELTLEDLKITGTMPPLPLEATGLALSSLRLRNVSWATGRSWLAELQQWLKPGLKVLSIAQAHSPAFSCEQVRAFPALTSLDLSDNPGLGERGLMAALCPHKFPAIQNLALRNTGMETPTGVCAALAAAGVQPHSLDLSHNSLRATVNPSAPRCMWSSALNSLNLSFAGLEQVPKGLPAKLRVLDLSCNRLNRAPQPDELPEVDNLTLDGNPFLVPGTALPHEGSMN", "assay": "Biacore 8K kinetic and affinity test of antibodies without PTM sites (Example 9)", "assay_type": "binding", "details": "Biacore 8K, analyte B294801 0.1953125-25 nM, capture conc. 1 μg/mL", "method": "Experimental reagents and consumables included cell culture fluid, electroporation buffer, CHO cells, 1 mL electroporation cuvette, Protein A chip (Cytiva, 29127556), various sizes of shake flasks, and various sizes of pipettes. Main instruments and equipment included a shaker (Taicang Huamei), centrifuge (Baiyang), ultrapure water system (Millipore), constant temperature incubator (BLUE PARD), electroporator, water bath, Biacore 8K (Cytiva), and ELISA system (Molecular Devices).\nThe antigen used for the binding affinity measurements is B294801. This antigen is a human CD14 antigen that is histidine tagged. D6DD3D001 is a mouse antibody, and MPDDAD001-MPDDAD005 are humanized antibodies. The antibodies are recombinant, human (hFc Tag). Selected parameters of the experimental samples are shown in Table 9-1, with MW referring to molecular weight in kDa.\nThe Biacore 8K platform was used to test the kinetic and affinity properties of the antibody, operating according to system instructions and indications.\nResults of Affinity Detection. The affinity of the six antibodies was measured at saturation concentration. For the experiments, the analyte solution comprises the B294801 antigen with an analyte concentration of 0.1953125 nM, 0.390625 nM, 0.78125 nM, 1.5625 nM, 3.125 nM, 6.25 nM, 12.5 nM, and 25 nM. Change factor is described above."}, "[3]": {"assay": "Mouse weight under anti-CD14-IgG1 dosages of Example 7 (PDX mice)", "assay_type": "in vivo", "details": "per mouse 1-5", "method": "To evaluate concentrations for the anti-CD14-IgG1 antibody, PDX mice were treated with five different concentrations of the IgG1 antibody over a period of 28 days. For these experiments, drug administration on the PDX mice was performed intravenously on alternating 4 days and 3 days.\nThe five different concentrations of the anti-CD14-IgG1 antibody tested include 5 mg/kg, 10 mg/kg, 15 mg/kg, 25 mg/kg, and 40 mg/kg. A control regimen was utilized as a comparative example. […] The non-specific IgG1 has no binding affinity to antigen. […] Tumor weight and tumor volume were calculated as described above."}}, "note": "Where “and” joins values, the source holds several entries; their conditions need not be identical. Equal values may be shown once."}
{"molecule": "B1", "values": [{"measurement": "Tumor Length", "setting": "[1]; Day 0, 5 mg/kg", "value": "5.49 mm and 6.47 mm and 6.35 mm and 7.09 mm and 6.67 mm and 6.45 mm"}, {"measurement": "Tumor Width", "setting": "[1]; Day 0, 5 mg/kg", "value": "4.68 mm and 5.9 mm and 5.17 mm and 4.77 mm and 5.25 mm and 5.24 mm"}, {"measurement": "Tumor Length", "setting": "[1]; Day 4, 5 mg/kg", "value": "7.07 mm and 6.57 mm and 5.62 mm and 7.08 mm and 6.02 mm and 6.24 mm"}, {"measurement": "Tumor Width", "setting": "[1]; Day 4, 5 mg/kg", "value": "5.98 mm and 5.95 mm and 5.01 mm and 5.53 mm and 5.58 mm and 6.18 mm"}, {"measurement": "Tumor Length", "setting": "[1]; Day 7, 5 mg/kg", "value": "7.09 mm and 6.9 mm and 6.93 mm and 6.25 mm and 6.83 mm and 8.42 mm"}, {"measurement": "Tumor Width", "setting": "[1]; Day 7, 5 mg/kg", "value": "5.61 mm and 6.26 mm and 6.41 mm and 5.39 mm and 6.72 mm and 6.39 mm"}, {"measurement": "Tumor Length", "setting": "[1]; Day 11, 5 mg/kg", "value": "7.21 mm and 8.38 mm and 8.42 mm and 8.88 mm and 7.93 mm and 6.52 mm"}, {"measurement": "Tumor Width", "setting": "[1]; Day 11, 5 mg/kg", "value": "5.85 mm and 6.91 mm and 7.5 mm and 7.03 mm and 6.5 mm and 5.39 mm"}, {"measurement": "Tumor Length", "setting": "[1]; Day 14, 5 mg/kg", "value": "8.71 mm and 8.88 mm and 8.53 mm and 8.28 mm and 9.34 mm and 8.3 mm"}, {"measurement": "Tumor Width", "setting": "[1]; Day 14, 5 mg/kg", "value": "7.05 mm and 6.51 mm and 7.95 mm and 7.99 mm and 8.34 mm and 8.05 mm"}, {"measurement": "Tumor Length", "setting": "[1]; Day 18, 5 mg/kg", "value": "8.97 mm and 8.58 mm and 10.62 mm and 9.13 mm and 10.97 mm and 10.6 mm"}, {"measurement": "Tumor Width", "setting": "[1]; Day 18, 5 mg/kg", "value": "8.41 mm and 8.21 mm and 9.09 mm and 8.09 mm and 8.03 mm and 8.83 mm"}, {"measurement": "Tumor Length", "setting": "[1]; Day 21, 5 mg/kg", "value": "10.32 mm and 9.85 mm and 10.71 mm and 10.99 mm and 9.04 mm and 9.86 mm"}, {"measurement": "Tumor Width", "setting": "[1]; Day 21, 5 mg/kg", "value": "9.94 mm and 9.85 mm and 8.59 mm and 8.23 mm and 8.97 mm and 9.35 mm"}, {"measurement": "Tumor Length", "setting": "[1]; Day 25, 5 mg/kg", "value": "10.94 mm and 11.6 mm and 9.44 mm and 10.91 mm and 11.63 mm and 11.67 mm"}, {"measurement": "Tumor Width", "setting": "[1]; Day 25, 5 mg/kg", "value": "10.71 mm and 8.34 mm and 9.23 mm and 9.83 mm and 10.03 mm and 9.39 mm"}, {"measurement": "Tumor Length", "setting": "[1]; Day 28, 5 mg/kg", "value": "11.18 mm and 12.43 mm and 12.8 mm and 10.15 mm and 10.49 mm"}, {"measurement": "Tumor Width", "setting": "[1]; Day 28, 5 mg/kg", "value": "9.72 mm and 10.02 mm and 9.93 mm and 10.84 mm and 9.98 mm and 9.95 mm"}, {"measurement": "Tumor weight after 28 days", "setting": "[1]; IgG1 (5 mg/kg), Ex. 1, per mouse 1-6, 5 mg/kg", "value": "0.645 grams and 0.585 grams and 0.501 grams and 0.618 grams and 0.641 grams and 0.555 grams"}, {"measurement": "tumor suppression rate", "setting": "[1]; single anti-CD14-IgG1 5 mg/kg (Ex. 1), after 28 days, compared to the control group", "value": "about 50%"}, {"measurement": "Koff", "setting": "[2]", "value": 0.00108, "unit": "s⁻¹"}, {"measurement": "kon (1:1 binding)", "setting": "[2]", "value": "1.25e+06", "unit": "M⁻¹ s⁻¹"}, {"measurement": "Mouse Weight", "setting": "[3]; Day 0, IgG1 (10 mg/kg), 10 mg/kg", "value": "19.83 g and 20.73 g and 20.13 g and 20.77 g and 19.27 g"}, {"measurement": "Mouse Weight", "setting": "[3]; Day 0, IgG1 (15 mg/kg), 15 mg/kg", "value": "20.37 g and 19.02 g and 20.34 g and 19.62 g and 19.24 g"}, {"measurement": "Mouse Weight", "setting": "[3]; Day 0, IgG1 (25 mg/kg), 25 mg/kg", "value": "19.63 g and 20.3 g and 19.71 g and 20.07 g and 20.02 g"}, {"measurement": "Mouse Weight", "setting": "[3]; Day 4, IgG1 (5 mg/kg), 5 mg/kg", "value": "20.33 g and 20.63 g and 19.58 g and 19.86 g and 20.45 g"}, {"measurement": "Mouse Weight", "setting": "[3]; Day 4, IgG1 (10 mg/kg), 10 mg/kg", "value": "19.89 g and 20.39 g and 19.36 g and 20.74 g and 20.98 g"}, {"measurement": "Mouse Weight", "setting": "[3]; Day 4, IgG1 (15 mg/kg), 15 mg/kg", "value": "20.83 g and 19.54 g and 20.87 g and 20.44 g and 20.68 g"}, {"measurement": "Mouse Weight", "setting": "[3]; Day 4, IgG1 (25 mg/kg), 25 mg/kg", "value": "20.75 g and 19.2 g and 20.99 g and 20.16 g and 20.55 g"}, {"measurement": "Mouse Weight", "setting": "[3]; Day 7, IgG1 (5 mg/kg), 5 mg/kg", "value": "20.95 g and 20.07 g and 20.36 g and 20.83 g and 20.56 g"}, {"measurement": "Mouse Weight", "setting": "[3]; Day 7, IgG1 (10 mg/kg), 10 mg/kg", "value": "20.81 g and 19.35 g and 19.89 g and 20.23 g and 21.08 g"}, {"measurement": "Mouse Weight", "setting": "[3]; Day 7, IgG1 (15 mg/kg), 15 mg/kg", "value": "19.65 g and 20.62 g and 20.38 g and 20.56 g and 20.71 g"}, {"measurement": "Mouse Weight", "setting": "[3]; Day 7, IgG1 (25 mg/kg), 25 mg/kg", "value": "20.86 g and 20.2 g and 20.76 g and 21.38 g and 20.06 g"}]}
